Data taken from patent US20240368664A1, “LIVE YEAST BIOSENSORS AND METHODS OF USE THEREOF” (priority 2021, published 2024).

Columns and labels:
[1] = target: T1, Schizosaccharomyces japonicus pheromone GPCR SjSte2 (Schizosaccharomyces japonicus); test: cell-based or functional assay
T1 sequence: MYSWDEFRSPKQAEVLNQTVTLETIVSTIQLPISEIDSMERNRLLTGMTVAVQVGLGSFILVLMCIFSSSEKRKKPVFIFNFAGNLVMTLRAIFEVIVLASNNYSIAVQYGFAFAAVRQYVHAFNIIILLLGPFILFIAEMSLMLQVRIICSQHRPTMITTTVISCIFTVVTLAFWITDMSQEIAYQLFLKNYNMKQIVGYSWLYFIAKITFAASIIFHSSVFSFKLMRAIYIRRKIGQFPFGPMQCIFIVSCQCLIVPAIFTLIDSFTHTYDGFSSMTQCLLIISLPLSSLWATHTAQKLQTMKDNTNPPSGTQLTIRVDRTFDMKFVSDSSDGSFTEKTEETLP

[2] = target: T2, Scheffersomyces stipitis pheromone GPCR SsSte2 (Scheffersomyces stipitis); test: cell-based or functional assay
T2 sequence: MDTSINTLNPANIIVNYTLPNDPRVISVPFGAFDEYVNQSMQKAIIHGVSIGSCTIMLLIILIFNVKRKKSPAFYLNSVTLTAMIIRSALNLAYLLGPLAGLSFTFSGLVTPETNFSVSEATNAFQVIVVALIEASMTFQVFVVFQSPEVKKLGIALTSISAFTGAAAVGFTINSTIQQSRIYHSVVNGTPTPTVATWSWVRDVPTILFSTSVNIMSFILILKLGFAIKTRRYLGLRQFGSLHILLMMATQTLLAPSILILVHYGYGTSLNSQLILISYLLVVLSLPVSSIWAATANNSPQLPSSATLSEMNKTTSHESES

Substance	apparent EC50, ymTurquoise2, strain co-expressing SjSxa2 [1] [µM]	EC50, mCherry, yMJ194 [2] [µM]	EC50, mCherry, yTC453 [2] [µM]	maximal activation, mCherry, yMJ194 [2] [A.U.]	maximal activation, mCherry, yTC453 [2] [A.U.]
S. japonicus pheromone peptide (SjPep)	100				
Scheffersomyces stipitis cognate peptide (SsPep)		0.012	0.007	320	5300
